This is an account of results in patent publication US20160040155A1, “ACTIVATING AN ALTERNATIVE PATHWAY FOR HOMOLOGY-DIRECTED REPAIR TO STIMULATE TARGETED GENE CORRECTION AND GENOME ENGINEERING” (UNIVERSITY OF WASHINGTON THROUGH ITS CENTER FOR …, priority 2013, published 2016).

Holding throughout (type): cell-based, human
One assay has as its system Flp-In T-REx-293 cells. The assay can be described thus: Tetracycline-inducible P-Tet TL reporter HDR and mutEJ assay with or without doxycycline. How it is done:
To ask if active transcription was required for the transcribed strand bias in HDR at nicks, derivatives of the TLTP and TLNT reporters were created in which a tetracycline-inducible (P-Tet) was substituted for the constitutive SFFV promoter upstream of GFP. TheseP-Tet TLTP and P-Tet TLNT reporters were stably integrated at the unique FRT site in Flp-In™ T-REx™-293 cells. Cells were cultured with (ON) or without (OFF) 1 μg/ml doxycycline, transfected with an I-AniI expression construct and the pCS14GFP plasmid dsDNA donor, and after 8-9 days of culture, doxycycline was added to the OFF cells to permit detection of HDR (GFP+) and mutEJ (mCherry+) events that had occurred in the absence of transcription. Active transcription increased the frequency of HDR at a transcribed-strand nick 2.5-fold, but reduced the frequency of HDR at a non-transcribed strand nick 4-fold (FIG. 9C). These opposing effects together accounted for the 8-fold greater frequency of HDR at a transcribed strand nick in a transcribed gene (FIG. 9B). […] Without wishing to be bound by theory, the transcription-associated strand bias of HDR at nicks may reflect unwinding ahead of the transcription apparatus that exposes the recombinogenic 3′ end of a transcribed strand nick that stimulates HDR, while occlusion of the 3′ end and exposure of the less recombinogenic 5′ end of a non-transcribed strand nick may hinder HDR (FIG. 9D). Similarly, the 2-fold reduction in mutEJ observed at DSBs, but not at nicks (FIG. 17B), may be caused by occlusion of the DSB by factors associated with the transcription apparatus.
(§1) Cell culture and transfection. […]
Flow cytometry. Cells were fixed in 2% formaldehyde and analyzed on an LSR II™ flow cytometer (Becton Dickinson, Franklin Lakes, N.J.). […]

The subject of another assay is 293T-TL7TP line. The assay can be described thus: TL reporter mutagenic end joining (mCherry+) flow assay, I-AniI, 293T-TL7TP line. As to conditions: mCherry+ cells, nicks or DSBs. The text has this: Damage associated with gene targeting must be minimized for these applications. While the sequence-specificity of I-AniI limits its application to genome engineering, it is useful as a model in this context, as it cuts DNA to generate 5′-phosphate and 3′-hydroxyl ends like the FokI cleavage domain^13 of zinc finger or TALE nucleases suited for genome engineering applications. The TL reporter was used to quantify mutagenic end joining (EJ) accompanied by +2 frameshift that allows the mCherry gene to be translated (FIG. 1B). In the 293T-TL7TP line, the frequency of nick-initiated mutagenic EJ was nearly two orders of magnitude lower than that of DSB-initiated mutagenic EJ, regardless of donor (FIG. 3E). RAD51K133R expression increased the frequency of mutagenic EJ, but the frequency of nick-initiated mutagenic EJ remained lower than that of DSB-initiated mutagenic EJ (FIG. 3E). […]
Flow cytometry data were analyzed using FlowJo™ (Tree Star, Ashland, Oreg.) flow cytometry analysis software and frequencies were transferred to Microsoft Excel™ in which statistical significance was determined by two-tailed t-test. […]
(§2) Flow cytometry. Cells were fixed in 2% formaldehyde and analyzed on an LSR II™ flow cytometer (Becton Dickinson, Franklin Lakes, N.J.). […] GFP, mCherry, and mTagBFP fluorescence were detected with 488 nm, 561 nm 406 nm and 641 nm lasers, respectively. […]

Assay [1] concerns 293T-TLTP and 293T-TLNT cell populations. The assay can be described thus: TL reporter HDR (GFP+) assay in 293T-TLTP and 293T-TLNT cell populations, I-AniI. As to conditions: I-AniI nickase. From the text: Populations of 293T cells bearing either the TLTP or TLNT reporter at heterogeneous integration sites were transiently transfected with a construct co-expressing I-AniI and the blue fluorescent protein mTagBFP (BFP), and with the dsDNA plasmid donor pCS14GFP. This donor is homologous with the TLTP and TLNT reporters over a region extending 2.47 kb upstream and 0.56 kb downstream of the I-AniI site (FIG. 15A-15C). GFP+ cells among I-AniI-expressing (BFP+) cells were quantified at 3 days post-transfection. […] Nicks initiated HDR with nearly 8-fold greater frequency in the TLTP than in the TLNT population.
To learn what determines ssDNA donor strand bias, HDR by ssDNA donors complementary to the intact (cI) or nicked (cN) strand at transcribed and non-transcribed strand nicks in the TLTP and TLNT populations was compared. The TLTP and TLNT populations carry reporters delivered by lentiviruses and integrated at heterogeneous chromosomal positions, to minimize possible effects of replication direction on this assay.
To determine whether there is a predominant directionality to unwinding or resection, a comparison was made of HDR at nicks by ssDNA donors identical in length (75 nt) and centered on the nick or extending either 3′ or 5′ of the nick. […]

For the next assay, the system named is HT1080-TL4TP clonal line. The assay can be described thus: TL reporter HDR (GFP+) flow assay, I-AniI nickase or cleavase, HT1080-TL4TP clonal line. As to conditions: I-AniI nick, ssDNA donors. Here is the method:
(§3) Flow cytometry data were analyzed using FlowJo™ (Tree Star, Ashland, Oreg.) flow cytometry analysis software and frequencies were transferred to Microsoft Excel™ in which statistical significance was determined by two-tailed t-test. In all experiments I-AniI was co-expressed with mTagBFP (BFP) and GFP+ and mCherry+ frequencies among BFP+ cells are shown.
ssDNA molecules can serve as donors for HDR at DSBs (22-24). It was asked if they can also serve as donors for HDR at nicks using 99 nt ssDNA oligonucleotides in which a central 17 nt heterologous region corrects the mutations in the defective target gene (FIG. 10A). […] No donor strand bias was evident at DSBs.
Flow cytometry, HDR and mutEJ frequencies. Cells were processed for flow cytometry as described previously (13). In experiments with I-AniI, which was co-expressed with mTagBFP (BFP), data are presented as GFP+ and mCherry+ frequencies among BFP+ cells, except in cases where flow was carried out more than 8 days post-transfection, by which time the BFP signal was largely extinguished.
as §1, §2

The subject of the next assay is 293T-TL7TP cells. Kind of assay: Traffic Light (TL) reporter HDR (GFP+) flow assay, I-AniI nickase or cleavase, 293T-TL7TP clonal line. As to conditions: I-AniI nick, 99 nt ssDNA donors.
Excerpt: Damage to the transcribed DNA strand is preferentially detected and repaired in transcription-coupled nucleotide excision repair^7, and transcribedstrand nicks can arrest transcriptional elongation in human cell extracts^8. […] Chromosomal repair targets were derived from the TL reporter^9. TLTP and […] reporters carry an I-AniI site oriented for nicking the transcribed or non-transcribed strand, respectively (FIGS. 1A and 5A-5E). HDR that replaces the I-AniI site and nonsense codons yields GFP+ cells (FIGS. 1B and 5A-5E). […] GFP+ cells among I-AniI-expressing (BFP+) cells were quantified 3 days later.
as §3
Damage to the transcribed strand is preferentially detected and repaired in transcription-coupled nucleotide excision repair (16), and transcribed strand nicks can arrest transcriptional elongation in human cell extracts (17). […]

The mark [2] stands for this setting: ON vs OFF, 1 μg/ml doxycycline, pCS14GFP dsDNA donor.

Entries after “also recorded” stand apart in the source; their conditions may differ.

Take `C[C@H]1c2cccc(O)c2C(=O)C2=C(O)[C@]3(O)C(=O)C(C(N)=O)=C(O)[C@@H](N(C)C)[C@@H]3[C@@H](O)[C@@H]21` [doxycycline]: in the assay on Flp-In T-REx-293 cells (ON vs OFF doxycycline, FIG. 17B, not at nicks), the “reduction in mutEJ at DSBs” value is recorded as 2 fold. For the same molecule, in the assay with Flp-In T-REx-293 cells (setting [2]), the “increase of the frequency of HDR at a transcribed-strand nick” value came out at 2.5 fold and the “reduction of the frequency of HDR at a non-transcribed strand nick” value is 4 fold.

B1: RAD51K133R: dominant negative RAD51 mutant which does not hydrolyze ATP, transiently expressed from pCMV-RAD51K133R-T2A-IFP-1.4 (protein, UniProt Q06609 2-339, looked up, variant K133R)
DNA repair protein RAD51 …: AMQMQLEANADTSVEEESFGPQPISRLEQCGINANDVKKLEEAGFHTVEAVAYAPKKELINIKGISEAKADKILAEAAKLVPMGFTTATEFHQRRSEIIQITTGSKELDKLLQGGIETGSITEMFGEFRTGRTQICHTLAVTCQLPIDRGGGEGKAMYIDTEGTFRPERLLAVAERYGLSGSDVLDNVAYARAFNTDHQTQLLYQASAMMVESRYALLIVDSATALYRTDYSGRGELSARQMHLARFLRMLLRLADEFGVAVVITNQVVAQVDGAAMFAADPKKPIGGNIIAHASTTRLYLRKGRGETRICKIYDSPCLPEAEAMFAINADGVGDAKD
modifications: T2A-IFP1.4 coexpression
As to B1, the “frequency of mutagenic EJ” value in the assay with 293T-TL7TP line was “increased”. In addition, the “effect on HDR at nicks in the transcribed or non-transcribed strand” value in assay [1] is “Stimulation was evident; also recorded: comparable effects”. For the same molecule, the “frequency of HDR at nicks by ssDNA donor” value in the assay on HT1080-TL4TP clonal line and in the assay on 293T-TL7TP cells was “stimulating” in each case.
